We go through two substances from publication PMC12742849 (Protein & Cell, 2025).

The target in experiment [1] is enolase, native, from Francisella novicida (Francisella novicida). The experiment is described as follows: cryo-EM structure.
The target in experiment [2] is riboflavin biosynthesis protein D (RibD), native, from Francisella novicida (Francisella novicida). The experiment is described as follows: cryo-EM structure.

As a reminder, the stoichiometry N is a count of units in the complex or per binding partner.

Turning to “enolase, native, from Francisella novicida (enzyme)”, the stoichiometry N in experiment [1] is 2.

“riboflavin biosynthesis protein D (RibD), native, from Francisella novicida (enzyme)”: in experiment [2], the stoichiometry N turned out to be 2.
